# Assay results from US20150246949A1, “Desmoglein 2 (DSG2) Binding Proteins and Uses Therefor” (UNIVERSITY OF WASHINGTON THROUGH ITS CENTER FOR …, priority 2012, published 2015).
# Positions count from the first letter of the chain named. Names may count otherwise.
# T1: human DSG2 on cells (HeLa cells; polarized T84 cells) (human, UniProt Q14126 50-1118)
# T1 sequence: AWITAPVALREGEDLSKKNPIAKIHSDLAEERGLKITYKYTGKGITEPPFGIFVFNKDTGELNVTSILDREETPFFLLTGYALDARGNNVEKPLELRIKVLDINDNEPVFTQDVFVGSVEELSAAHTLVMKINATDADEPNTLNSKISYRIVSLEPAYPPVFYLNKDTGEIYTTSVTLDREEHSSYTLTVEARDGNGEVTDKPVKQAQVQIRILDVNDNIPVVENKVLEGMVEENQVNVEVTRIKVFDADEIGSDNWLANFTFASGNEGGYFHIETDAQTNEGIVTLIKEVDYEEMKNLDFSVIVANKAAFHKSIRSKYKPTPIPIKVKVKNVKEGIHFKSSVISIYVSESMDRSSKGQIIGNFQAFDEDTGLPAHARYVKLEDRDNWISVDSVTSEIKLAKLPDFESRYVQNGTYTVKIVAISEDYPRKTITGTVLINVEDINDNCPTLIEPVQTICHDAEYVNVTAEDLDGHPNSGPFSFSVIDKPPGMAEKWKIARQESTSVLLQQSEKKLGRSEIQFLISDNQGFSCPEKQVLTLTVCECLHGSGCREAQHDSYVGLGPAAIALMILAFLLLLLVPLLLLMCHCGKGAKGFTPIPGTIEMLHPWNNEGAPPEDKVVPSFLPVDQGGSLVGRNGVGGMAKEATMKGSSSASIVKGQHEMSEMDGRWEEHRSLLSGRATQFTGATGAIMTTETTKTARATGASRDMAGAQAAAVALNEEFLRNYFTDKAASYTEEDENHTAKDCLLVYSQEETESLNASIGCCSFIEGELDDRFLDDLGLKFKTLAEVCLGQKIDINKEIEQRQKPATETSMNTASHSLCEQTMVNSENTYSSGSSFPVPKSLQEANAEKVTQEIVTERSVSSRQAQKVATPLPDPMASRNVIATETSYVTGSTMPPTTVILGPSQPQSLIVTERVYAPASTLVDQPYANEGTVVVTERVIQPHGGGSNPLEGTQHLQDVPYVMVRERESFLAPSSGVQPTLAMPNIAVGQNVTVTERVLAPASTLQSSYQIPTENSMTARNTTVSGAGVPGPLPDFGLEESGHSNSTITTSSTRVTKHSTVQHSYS
# T2: Recombinant human DSG2 protein (Leinco Technologies) (human, UniProt Q14126 50-609)
# T2 construct: also called soluble DSG2; soluble recombinant DSG2
# T2 sequence: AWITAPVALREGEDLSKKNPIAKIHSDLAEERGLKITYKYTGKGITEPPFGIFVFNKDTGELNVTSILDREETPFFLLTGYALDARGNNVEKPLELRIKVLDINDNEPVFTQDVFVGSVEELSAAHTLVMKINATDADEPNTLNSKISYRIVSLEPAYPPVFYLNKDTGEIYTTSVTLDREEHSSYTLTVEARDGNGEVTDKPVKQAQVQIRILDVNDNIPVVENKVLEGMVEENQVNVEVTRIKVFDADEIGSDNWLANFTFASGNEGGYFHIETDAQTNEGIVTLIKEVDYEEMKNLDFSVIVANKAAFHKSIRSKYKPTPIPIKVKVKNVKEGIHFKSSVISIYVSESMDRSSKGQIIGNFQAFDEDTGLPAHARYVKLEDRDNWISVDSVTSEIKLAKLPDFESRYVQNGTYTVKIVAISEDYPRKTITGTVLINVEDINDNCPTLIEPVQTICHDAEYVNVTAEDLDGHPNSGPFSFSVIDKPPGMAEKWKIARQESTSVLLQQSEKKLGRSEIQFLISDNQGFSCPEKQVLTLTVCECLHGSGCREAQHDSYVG
# T3: soluble recombinant DSG2 (Homo sapiens, UniProt Q14126)
# T3 construct: purchased Leinco Technologies, Inc. (St. Louis, Mo.)
# T3 sequence (Q14126 50-609 limits assumed): T2 sequence
# B1: dimeric Ad3 fiber knob mutant D261N (designed binder)
# chain: MKVSALKEKVSALKEKVSALKEKVSALKEKVSALKEGSGGGSGGGSGGGSNSIALKNNTLWTGPKPEANCIIEYGKQNPDSKLTLILVKNGGIVNGYVTLMGASDYVNTLFKNKNVSINVELYFDATGHILPDSSSLKTDLELKYKQTADFSARGFMPSTTAYPFVLPNAGTHNENYIFGQCYYKASNGALFPLEVTVMLNKRLPDSRTSYVMTFLWSLNAGLAPETTQATLITSPFTFSYIREDD
# B2: F265L (protein)
# chain: B1 chain with N188D, F192L
# B3: N186D, D261N, L296R: dimeric Ad3 fiber knob with combination of all three N186D, D261N, and L296R (protein)
# chain: B1 chain with N113D, L223R
# B4: dimeric Ad3 fiber knob mutant F265L (designed binder)
# chain: B1 chain with N188D, F192L
# Experiments:
# [1] = molecular target: T1, human DSG2 on cells (HeLa cells; …); assay: cell-based or functional assay
# [2] = molecular target: T2, Recombinant human DSG2 protein (Leinco …); assay: Western blot of dimeric knob, soluble DSG2 as probe (Table 2: 0% residual binding)
# [3] = molecular target: T2, Recombinant human DSG2 protein (Leinco …); assay: Western blot of dimeric knob (trimer band), soluble recombinant DSG2 as probe, anti-DSG2 mAb
# [4] = molecular target: T1, human DSG2 on cells (HeLa cells; …); assay: attachment of 3H-labelled Ad3 virus (competitor) to HeLa cells pre-incubated with the dimeric knob
# [5] = molecular target: T3, soluble recombinant DSG2; assay: Western blot of dimeric Ad3 fiber knob mutants probed with soluble DSG2; type: binding; details: purified dimerized knob mutants
# Excerpt: FIG. 1. Residues found to be critically involved in binding to DSG2. A) Shown are the amino acid sequences of the Ad3 and Ad14p1 fiber knob. Beta sheets present in the Ad3 knob (PDB accession number 1H7Z_A) and Ad14 knob (PDB: 3F0Y_A) are indicated by lines. Black arrows indicate residues within the Ad3 fiber knob which, when mutated individually, ablate or reduce binding to DSG2. […] B) Schematic structure of dimeric Ad3 fiber knob mutants. The fiber knob domain and one shaft motif was fused through a flexible linker to a homodimerizing K-coil domain (41). The proteins are self-dimerizing and can be purified by His-Ni-NTA affinity chromatography. C-F) Analysis of binding of dimeric Ad3 fiber knob mutants to soluble DSG2. C and D) Coomassie staining. 10 μg of purified Ad3 fiber knob (unboiled) were loaded per lane. Trimeric forms of the fiber knobs are indicated by an arrow. The gel contained SDS and the loading buffer containing DTT, which caused the disassembly of dimers of trimeric fiber knobs as previously reported (41). E and F): Western blot using soluble recombinant DSG2 as a probe, followed by anti-DSG2-mAb and anti-mouse IgG-HRP. For comparison, JO-1 (0.5 μg/lane) is shown. The Western blots were scanned and signals were quantified.
# Mini-PROTEAN precast gels (BIO-RAD, Hercules, Calif.) with 4-15% gradient polyacrylamide were used. A total of […] protein mixed with 2× loading buffer (10 mM Tris-HCl, pH6.8, 200 mM DTT, 4% SDS, 20% glycerol, 0.2% bromophenol blue) was loaded per lane. Samples were either boiled (B) for 5 min or loaded unboiled (UB). The following running buffer was used: 25 mM Tris, pH8.3, 0.192 M glycine, 0.1% SDS. After electrophoresis, proteins were transferred to nitrocellulose and incubated with recombinant human DSG2 protein and anti-DSG2 antibodies as described previously (42). The Western blots were scanned and quantified using the ImageJ 1.32 software (National Institutes of Health, Bethesda, Md.). JO-1 band intensity was set as 100%. […]
# [6] = tested on: Ad3-GFP virus; assay: Competition of Ad3-GFP virus infection on HeLa cells; type: cell-based, adenovirus serotype 3 (Ad3)
# Description: (§1) FIG. 3. Competition of Ad3 virus by dimerized Ad3 knob mutants. A) Relative attachment of ^3H-labeled Ad3 virus in the presence of dimeric fiber knob mutants. 1.8×10^5 HeLa cells were incubated with Ad3 knob mutants at a concentration of 2.5 and 100 μg/ml on ice for 1 hour. Then 400 pfu/cell of ^3H-Ad3 virus was added on ice for another hour. Unbound virus particles were washed away. Attachment of virus particles incubated with PBS was taken as 100%. N=3. B) Competition of Ad3-GFP virus infection on HeLa cells. 1.5×10^5 HeLa cells were seeded into 24 well plates. Cells were incubated with the Ad3 knob mutants at increasing concentrations for one hour at room temperature. 100 pfu/cell of Ad3-GFP virus were then added and GFP expression was analyzed 18 hours later by flow cytometry. Left panel: percentage of GFP positive cells. Right panel: mean fluorescence intensity. N=3. The standard deviation was less than 10%. C) Relative attachment of ^3H-labeled Ad3 virus in the presence of dimeric fiber knob mutants with multiple mutations. The study was performed as described in B) The standard deviation was less than 10%. D) Competition of Ad3-GFP virus infection on HeLa cells. The study was performed as described in C) The standard deviation was less than 10%.
# FIG. 9. Analysis of dimeric Ad3 fiber knob mutants with increased affinity to DSG2. A) Competition of Ad3-GFP virus infection on HeLa cells with dimeric affinity-enhanced mutant Y250F and JO-1 (dimeric wt Ad3 fiber knob). The experimental setting is as described for FIG. 3C. left panel: percentage of GFP positive cells. Right panel: mean fluorescence intensity. N=3. The standard deviation was less than 10%. […] 100 pfu/cell of Ad3GFP virus were then added and GFP expression was analyzed 18 hours later. […]
# Competition studies were performed on HeLa cells, which express DSG2 (42). […] Transduction was measured based on GFP expression (FIG. 3B). […] Dimeric Ad3 knob mutants with combined mutations were also analyzed for their ability to compete with Ad3 virus for attachment (FIG. 3C) and infection (FIG. 3D).
# [7] = tested on: 3H-labeled Ad3 virus; assay: Competition of 3H-labeled Ad3 virus attachment to HeLa cells; type: cell-based, adenovirus serotype 3 (Ad3)
# Description: as §1, with “The study was performed as described in B) The standard deviation was less than 10%. D) Competition of Ad3-GFP virus infection on HeLa cells. The study was performed as described in C) The standard deviation was less than 10%.” left out
# HeLa cells were detached from culture dishes by incubation with Versene and washed with PBS. […] After the last wash, the supernatant was removed and the cell-associated radioactivity was determined by a scintillation counter. The number of VP bound per cell was calculated by using the virion specific radioactivity and the number of cells.
# [8] = HeLa cells, concentrations up to 200 ug/ml
Molecule,Inhibition of infection in the presence of dimeric knob (JO-1 = 100%) [1] [%],binding result [2],Western blot residual DSG2 binding (wtAd3 knob = 100%) [3] [%],Inhibition of attachment in the presence of dimeric knob (JO-1 = 100%) [4] [%],DSG2 binding in Western blot compared to JO-1 [5],"Competition of Ad3-GFP infection based on GFP expression ([6]; HeLa cells pre-incubated with knob, 100 pfu/cell Ad3-GFP, GFP at 18 hours)","Block of Ad3 infection [6, 8]","Inhibition of attachment in the presence of dimeric knob (JO-1 = 100%) ([7]; Ad3 virus attachment to HeLa cells, N = 3) [%]","Block of Ad3 binding [7, 8]"
B1,5.3,no binding,0,45,–,–,–,–,–
B2,–,–,–,–,almost completely ablated for DSG2 binding,least reduced,–,–,–
B3,–,–,–,–,highest level of ablation,–,did not block,18.5,did not block
B4,17.6,no binding,0,55.6,–,–,–,–,–
